Tests used:
Assay in all cases: cell-based or functional assay
[1] = target: insulin receptor of C2C12 mouse myoblasts (mouse, UniProt P15208 28-1372)
IGF-IR [2] = target: T1, IGF-IR (human, UniProt P08069 31-1367)
IGF-IR [3] = target: T1, IGF-IR; remark: listed apart in the source

insulin receptor of C2C12 mouse myoblasts, sequence (P15208 28-1372): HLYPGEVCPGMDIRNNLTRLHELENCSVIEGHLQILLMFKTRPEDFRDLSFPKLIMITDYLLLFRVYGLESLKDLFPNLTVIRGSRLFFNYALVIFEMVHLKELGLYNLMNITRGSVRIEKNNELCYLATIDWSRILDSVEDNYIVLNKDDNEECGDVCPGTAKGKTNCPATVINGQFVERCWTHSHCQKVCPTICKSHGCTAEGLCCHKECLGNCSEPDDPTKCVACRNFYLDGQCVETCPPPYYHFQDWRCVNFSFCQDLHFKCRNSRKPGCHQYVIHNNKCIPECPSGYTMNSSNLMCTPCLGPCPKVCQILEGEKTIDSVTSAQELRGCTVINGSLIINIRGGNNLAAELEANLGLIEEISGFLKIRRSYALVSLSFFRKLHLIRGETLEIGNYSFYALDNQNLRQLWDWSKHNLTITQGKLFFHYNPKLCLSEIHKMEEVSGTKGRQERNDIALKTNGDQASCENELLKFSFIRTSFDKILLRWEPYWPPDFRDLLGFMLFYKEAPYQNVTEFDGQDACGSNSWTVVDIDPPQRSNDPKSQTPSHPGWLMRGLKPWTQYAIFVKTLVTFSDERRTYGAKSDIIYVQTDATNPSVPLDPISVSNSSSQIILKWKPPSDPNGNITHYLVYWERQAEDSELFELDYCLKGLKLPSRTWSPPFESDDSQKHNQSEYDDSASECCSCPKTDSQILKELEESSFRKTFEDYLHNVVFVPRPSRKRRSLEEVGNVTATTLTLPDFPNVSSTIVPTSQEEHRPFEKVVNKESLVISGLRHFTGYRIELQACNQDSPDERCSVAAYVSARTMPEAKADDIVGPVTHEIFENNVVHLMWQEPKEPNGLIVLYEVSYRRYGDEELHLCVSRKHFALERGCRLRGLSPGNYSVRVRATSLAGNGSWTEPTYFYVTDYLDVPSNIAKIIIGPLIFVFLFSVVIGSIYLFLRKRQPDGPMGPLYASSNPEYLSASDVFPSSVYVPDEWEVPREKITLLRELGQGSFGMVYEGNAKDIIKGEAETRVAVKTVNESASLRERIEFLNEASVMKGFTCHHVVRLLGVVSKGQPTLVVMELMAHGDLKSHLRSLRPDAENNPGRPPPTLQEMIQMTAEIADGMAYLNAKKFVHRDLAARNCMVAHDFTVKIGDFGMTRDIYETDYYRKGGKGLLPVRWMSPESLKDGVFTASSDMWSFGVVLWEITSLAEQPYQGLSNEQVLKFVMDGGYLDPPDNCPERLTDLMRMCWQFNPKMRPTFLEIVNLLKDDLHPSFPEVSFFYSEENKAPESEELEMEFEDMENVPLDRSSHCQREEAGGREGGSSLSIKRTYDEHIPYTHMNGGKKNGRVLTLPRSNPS

| AKT phosphorylation activity (EC50) in C2C12 mouse myoblasts (HTRF phospho-S473) [1] [nM] | Activity in promoting MCF-7 proliferation (EC50), CellTiter-Glo (IGF-IR [2]) [nM] | EC50 for the activity in promoting MCF-7 proliferation, relative to LY3209590 (IGF-IR [3]) | Binder |
| --- | --- | --- | --- |
| 194 | 31.2 | – | LY3209590 (Fc fusion) FVNQHLCGSHLVEALELVCGERGFHYGGGGGGSGGGGGIVEQCCTSTCSLDQLENYCGGGGGQGGGGQGGGGQGGGGGECPPCPAPPVAGPSVFLFPPKPKDTLMISRTPEVTCVVVDVSHEDPEVQFNWYVDGVEVHNAKTKPREEQFNSTFRVVSVLTVVHQDWLNGKEYKCKVSNKGLPAPIEKTISKTKGQPREPQVYTLPPSREEMTKNQVSLTCLVKGFYPSDIAVEWESNGQPENNYKTTPPMLDSDGSFFLYSKLTVDKSRWQQGNVFSCSVMHEALHNHYTQKSLSLSPG |
| 565 | – | – | fusion protein 4 (insulin analog 4 + L2 + IgG2 Fc1) (Fc fusion) FVKQHLCGEHLVEALYLVCGERGFHYGGGGGGSGGGGGIVEQCCESICSLEQLENYCGGGGGQGGGGQGGGGQGGGGGECPPCPAPPVAGPSVFLFPPKPKDTLMISRTPEVTCVVVDVSHEDPEVQFNWYVDGVEVHNAKTKPREEQFNSTFRVVSVLTVVHQDWLNGKEYKCKVSNKGLPAPIEKTISKTKGQPREPQVYTLPPSREEMTKNQVSLTCLVKGFYPSDIAVEWESNGQPENNYKTTPPMLDSDGSFFLYSKLTVDKSRWQQGNVFSCSVMHEALHNHYTQKSLSLSPG |
| 490 | 280 | – | fusion protein 1 (insulin analog 1 + L2 + IgG2 Fc1) (Fc fusion) FVNQHLCGEHLVEALYLVCGERGFHYGGGGGGSGGGGGIVEQCCESICSLEQLENYCGGGGGQGGGGQGGGGQGGGGGECPPCPAPPVAGPSVFLFPPKPKDTLMISRTPEVTCVVVDVSHEDPEVQFNWYVDGVEVHNAKTKPREEQFNSTFRVVSVLTVVHQDWLNGKEYKCKVSNKGLPAPIEKTISKTKGQPREPQVYTLPPSREEMTKNQVSLTCLVKGFYPSDIAVEWESNGQPENNYKTTPPMLDSDGSFFLYSKLTVDKSRWQQGNVFSCSVMHEALHNHYTQKSLSLSPG |
| 90.5 | – | ~2 fold of the EC50 of LY3209590 | fusion protein 2 (insulin analog 2 + L2 + IgG2 Fc1) (Fc fusion) FVNQHLCGSHLVEALYLVCGERGFHYGGGGGGSGGGGGIVEQCCHSICSLEQLENYCGGGGGQGGGGQGGGGQGGGGGECPPCPAPPVAGPSVFLFPPKPKDTLMISRTPEVTCVVVDVSHEDPEVQFNWYVDGVEVHNAKTKPREEQFNSTFRVVSVLTVVHQDWLNGKEYKCKVSNKGLPAPIEKTISKTKGQPREPQVYTLPPSREEMTKNQVSLTCLVKGFYPSDIAVEWESNGQPENNYKTTPPMLDSDGSFFLYSKLTVDKSRWQQGNVFSCSVMHEALHNHYTQKSLSLSPG |
| 28.6 | – | – | fusion protein 3 (insulin analog 3 + L2 + IgG2 Fc1) (Fc fusion) FVNQHLCGSHLVEALHLVCGERGFHYGGGGGGSGGGGGIVEQCCTSICSLEQLENYCNGGGGQGGGGQGGGGQGGGGGECPPCPAPPVAGPSVFLFPPKPKDTLMISRTPEVTCVVVDVSHEDPEVQFNWYVDGVEVHNAKTKPREEQFNSTFRVVSVLTVVHQDWLNGKEYKCKVSNKGLPAPIEKTISKTKGQPREPQVYTLPPSREEMTKNQVSLTCLVKGFYPSDIAVEWESNGQPENNYKTTPPMLDSDGSFFLYSKLTVDKSRWQQGNVFSCSVMHEALHNHYTQKSLSLSPG |
| 544 | – | – | fusion protein 8 (insulin analog 1 + L2 + IgG2 Fc1) (Fc fusion) FVNQHLCGEHLVEALYLVCGERGFHYGGGGGGSGGGGGIVEQCCESICSLEQLENYCGGGGGAGGGGAGGGGAGGGGGECPPCPAPPVAGPSVFLFPPKPKDTLMISRTPEVTCVVVDVSHEDPEVQFNWYVDGVEVHNAKTKPREEQFNSTFRVVSVLTVVHQDWLNGKEYKCKVSNKGLPAPIEKTISKTKGQPREPQVYTLPPSREEMTKNQVSLTCLVKGFYPSDIAVEWESNGQPENNYKTTPPMLDSDGSFFLYSKLTVDKSRWQQGNVFSCSVMHEALHNHYTQKSLSLSPG |
| 133 | – | – | fusion protein 9 (insulin analog 6 + L2 + IgG2 Fc1) (Fc fusion) FVNQHLCGEHLVEALYLVCGERGFHYGGGGGGSGGGGGIVEQCCESICSLEQLENYCNHGGGQGGGGQGGGGQGGGGGECPPCPAPPVAGPSVFLFPPKPKDTLMISRTPEVTCVVVDVSHEDPEVQFNWYVDGVEVHNAKTKPREEQFNSTFRVVSVLTVVHQDWLNGKEYKCKVSNKGLPAPIEKTISKTKGQPREPQVYTLPPSREEMTKNQVSLTCLVKGFYPSDIAVEWESNGQPENNYKTTPPMLDSDGSFFLYSKLTVDKSRWQQGNVFSCSVMHEALHNHYTQKSLSLSPG |
| 456 | – | – | fusion protein 6 (insulin analog 5 + L2 + IgG2 Fc1) (Fc fusion) FVNQHLCGEHLVEALYLVCGERGFHYGGGGGSGGGGGIVEQCCESICSLEQLENYCGGGGGQGGGGQGGGGQGGGGGECPPCPAPPVAGPSVFLFPPKPKDTLMISRTPEVTCVVVDVSHEDPEVQFNWYVDGVEVHNAKTKPREEQFNSTFRVVSVLTVVHQDWLNGKEYKCKVSNKGLPAPIEKTISKTKGQPREPQVYTLPPSREEMTKNQVSLTCLVKGFYPSDIAVEWESNGQPENNYKTTPPMLDSDGSFFLYSKLTVDKSRWQQGNVFSCSVMHEALHNHYTQKSLSLSPG |
| 280 | – | – | fusion protein 7 (insulin analog 1 + L2 + IgG2 Fc1) (Fc fusion) FVNQHLCGEHLVEALYLVCGERGFHYGGGGGGSGGGGGIVEQCCESICSLEQLENYCGPGPQPGPQPGPQPGPQPGPQPGPQPGPQPGPQECPPCPAPPVAGPSVFLFPPKPKDTLMISRTPEVTCVVVDVSHEDPEVQFNWYVDGVEVHNAKTKPREEQFNSTFRVVSVLTVVHQDWLNGKEYKCKVSNKGLPAPIEKTISKTKGQPREPQVYTLPPSREEMTKNQVSLTCLVKGFYPSDIAVEWESNGQPENNYKTTPPMLDSDGSFFLYSKLTVDKSRWQQGNVFSCSVMHEALHNHYTQKSLSLSPG |
| 320 | – | – | fusion protein 5 (insulin analog 1 + L2 + IgG2 Fc1) (Fc fusion) FVNQHLCGEHLVEALYLVCGERGFHYGGGGGGSGGGGGIVEQCCESICSLEQLENYCGGGGGQGGGGQGGGGQGGGGQGGGGQECPPCPAPPVAGPSVFLFPPKPKDTLMISRTPEVTCVVVDVSHEDPEVQFNWYVDGVEVHNAKTKPREEQFNSTFRVVSVLTVVHQDWLNGKEYKCKVSNKGLPAPIEKTISKTKGQPREPQVYTLPPSREEMTKNQVSLTCLVKGFYPSDIAVEWESNGQPENNYKTTPPMLDSDGSFFLYSKLTVDKSRWQQGNVFSCSVMHEALHNHYTQKSLSLSPG |

Reference: US20250206797A1 (BEIJING TUO JIE BIOPHARMACEUTICAL, published 2025)
